Here are results for one substance from paper PMC8990738.

In the experiment the target is depolymerase Dpo71 (Acinetobacter baumannii phage vB_AbaM-IME-AB2). Nature of the experiment: SEC; Superose 6 Increase column on AKTA FPLC, equilibrated with PBS; gel filtration markers of 150 and 200 kDa; purified Dpo71 alone. A general note: Size exclusion chromatography separates by hydrodynamic size, large species first.

As usually defined, the stoichiometry N is the number of molecules, sites or subunits per partner or assembly. In turn, depolymerase Dpo71 (enzyme) yielded a stoichiometry N of 3.
